B1: ADI-15946 (antibody, V domains shown)
VH: EVQLVESGGGLVKPGGSLRLSCAASGFTFSNAWMSWVRQAPGKGLEWVGRIKSKTDGGTIDYAAPVKGRFTISRDDSKNTVYLQMTSLKTEDTAVYYCTTYTEDMRYFDWLLRGGETFDYWGQGTLVTVSS
VL: DIRLTQSPSSLSASVGDRVTITCRASHYISTYLNWYQQKPGKAPKLLIYAASNLQSGVPSRFSGSGFGTDFSLTISSLQPEDFATYHCQQSYSTPGRYTFGQGTKVEIK
notes: also called wild-type ADI-15946; parental antibody
B2:  (antibody, V domains shown)
VH: EVQLVESGGGLVKPGGSLRLSCAASGFTFSNAWMSWVRQAPGKGLEWVGRIKSKTDGGTIDYAAPVKGRFTISRDDSKNTVYLQMTSLKTEDTAVYYCTTYTEDMRYFDWLLRGGETFDYWGQGTLVTVSS
VL: DIRLTQSPSSLSASVGDRVTITCRASQYISTYLNWYQQKPGKAPKLLIYAAYNLQSGVPSRFSGSRFGTDFSLTISSLQPEDFATYHCQQSYSTPGRYTFGQGTKVEIK
notes: also called H27Q/S52Y/G66R-LC variant
B3:  (antibody, V domains shown)
VH: EVQLVESGGGLVKPGGSLRLSCAASGFTFSNAWMSWVRQAPGKGLEWVGRIKSKTDGGTIDYAAPVKGRFTISRDDSKNTVYLQMTSLKTEDTAVYYCTTYTEDMRYFDWLLRGGETFDYWGQGTLVTVSS
VL: DIRLTQSPSSLSASVGDRVTITCRASHYISTYLNWYQQKPGKAPKLLIYYAYNRQSGVPSRFSGSGFGTDFSLTISSLQPEDFATYHCQQSYSTPGRYTFGQGTKVEIK
notes: also called A50Y/S52Y/L54R-LC variant

Assays:
[1] = molecular target: T1, Sudan virus (SUDV) glycoprotein GP (Sudan ebolavirus, strain  for …, UniProt Q7T9D9); test: SPR; conditions: both partners purified
[2] = molecular target: T1, Sudan virus (SUDV) glycoprotein GP; test: cell-based or functional assay

Binder | Kd [1] | IC50, neutralisation of SUDV GP pseudovirus (luciferase, Huh7 cells) [2]
B1 | 2.24 nM | 9.16 µg/mL
B2 | – | 0.08 µg/mL
B3 | – | 0.22 µg/mL

— article PMC13006735 (Research, 2026)
